Source: patent US20220332804A1 (CSL INNOVATION, published 2022)
Numbering of substitutions follows the chain as printed.

Tests used:
Assay in all cases: SPR, KD relative to WT C2;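 also: biacore SPR at 37 °C, anti-C2 mAbs captured via immobilised goat anti-human IgG, C2 alanine or serine surface mutants as analytes, 1:1 model fitted, double-referenced sensograms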
human C2 T483A = biological target: T1, human C2 T483A (human, UniProt P06681 21-752)
T1 sequence: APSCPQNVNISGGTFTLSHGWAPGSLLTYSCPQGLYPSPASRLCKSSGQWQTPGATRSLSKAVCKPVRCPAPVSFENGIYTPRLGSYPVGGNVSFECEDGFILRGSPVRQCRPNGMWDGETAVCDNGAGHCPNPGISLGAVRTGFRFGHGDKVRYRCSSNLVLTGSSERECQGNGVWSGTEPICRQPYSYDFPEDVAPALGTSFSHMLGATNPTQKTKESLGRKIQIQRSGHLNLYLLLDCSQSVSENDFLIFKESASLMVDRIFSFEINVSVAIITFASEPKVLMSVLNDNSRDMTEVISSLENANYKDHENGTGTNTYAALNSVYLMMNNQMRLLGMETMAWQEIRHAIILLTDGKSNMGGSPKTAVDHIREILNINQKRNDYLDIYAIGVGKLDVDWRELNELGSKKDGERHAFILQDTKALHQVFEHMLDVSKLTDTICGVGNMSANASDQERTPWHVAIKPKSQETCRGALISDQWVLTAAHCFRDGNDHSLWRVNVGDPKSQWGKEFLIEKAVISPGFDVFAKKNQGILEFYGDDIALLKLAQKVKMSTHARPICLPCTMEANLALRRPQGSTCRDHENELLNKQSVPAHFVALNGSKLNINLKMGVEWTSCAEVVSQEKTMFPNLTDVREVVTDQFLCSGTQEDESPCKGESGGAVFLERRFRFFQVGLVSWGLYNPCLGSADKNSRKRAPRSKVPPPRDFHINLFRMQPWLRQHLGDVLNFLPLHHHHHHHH

human C2 L620A = biological target: T2, human C2 L620A (human, UniProt P06681 21-752)
T2 sequence: T1 sequence with A463T, L600A

human C2 D419A = biological target: T3, human C2 D419A (human, UniProt P06681 21-752)
T3 sequence: T1 sequence with D399A, A463T

human C2 N327A = biological target: T4, human C2 N327A (human, UniProt P06681 21-752)
T4 sequence: T1 sequence with N307A, A463T

B1: RF16-226 (antibody, human IgG4 S228P, lambda)
heavy: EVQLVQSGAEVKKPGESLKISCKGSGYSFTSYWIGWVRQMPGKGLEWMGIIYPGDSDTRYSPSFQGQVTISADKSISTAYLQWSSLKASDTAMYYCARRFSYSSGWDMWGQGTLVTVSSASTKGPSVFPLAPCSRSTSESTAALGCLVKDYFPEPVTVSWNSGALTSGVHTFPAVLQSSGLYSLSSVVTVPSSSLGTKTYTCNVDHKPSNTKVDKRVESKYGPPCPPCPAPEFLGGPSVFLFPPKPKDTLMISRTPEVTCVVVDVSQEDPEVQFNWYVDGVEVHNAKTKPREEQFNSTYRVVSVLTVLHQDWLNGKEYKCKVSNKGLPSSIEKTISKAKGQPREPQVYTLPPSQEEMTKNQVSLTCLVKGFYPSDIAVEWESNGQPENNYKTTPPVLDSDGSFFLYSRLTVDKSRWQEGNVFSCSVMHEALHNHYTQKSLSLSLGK
light: SYELTQPPSVSVSPGQTARITCSGDALTSKYVAWYQQKSGLAPLLVIYEDTRRPSGIPAKFSGSSSGSVATLTISGAHGDDEADYYCYSTDASGHQRVFGGGTKLTVLSQPKAAPSVTLFPPSSEELQANKATLVCLISDFYPGAVTVAWKADGSPVKAGVETTKPSKQSNNKYAASSYLSLTPEQWKSHRSYSCQVTHEGSTVEKTVAPTECS
notes: pH-dependent anti-C2 antibody from a phage display library; also called WT
- Fold diff (human C2 T483A): 1 fold
- Fold diff (human C2 L620A): 1 fold
- Fold diff (human C2 D419A): 2 fold
- Fold diff (human C2 N327A): 7 fold
